The target in the assay is MFSD1-strep (mouse Major Facilitator Superfamily Domain Containing 1 with N-terminal Twin-Streptavidin-tag) (mouse) (UniProt Q9DC37). In words: nanoDSF. A general note: Differential scanning fluorimetry follows unfolding on heating by fluorescence.
Chain of UniProt Q9DC37 (Q9DC37 whole entry, the tested form may be a part): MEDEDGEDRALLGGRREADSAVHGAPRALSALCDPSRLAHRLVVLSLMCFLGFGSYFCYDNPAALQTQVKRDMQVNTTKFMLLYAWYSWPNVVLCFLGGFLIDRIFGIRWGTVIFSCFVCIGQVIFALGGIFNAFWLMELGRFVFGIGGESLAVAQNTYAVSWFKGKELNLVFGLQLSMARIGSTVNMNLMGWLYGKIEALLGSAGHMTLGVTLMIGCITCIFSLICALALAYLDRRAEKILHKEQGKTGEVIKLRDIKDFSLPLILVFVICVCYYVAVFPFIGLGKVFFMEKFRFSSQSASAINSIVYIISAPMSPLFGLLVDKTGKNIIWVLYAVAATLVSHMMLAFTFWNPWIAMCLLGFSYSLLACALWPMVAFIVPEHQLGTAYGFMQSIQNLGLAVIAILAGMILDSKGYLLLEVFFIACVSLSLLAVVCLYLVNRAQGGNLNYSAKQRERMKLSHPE
Consider Leu-Ala (peptide), for which the equilibrium dissociation constant (Kd) amounted to 2200 µM. On to His-Lys (peptide), for which the dissociation constant (Kd) amounted to 765 µM and the ΔTm came out at 12 °C. In the case of Leu-Leu (peptide), the ΔTm amounted to 14 °C. Substance Lys-Val (peptide) gave a Kd of 4300 µM. Take His-Ala (peptide): the Kd is 6700 µM. Turning to Pro-Arg (peptide), the Kd was 318 µM and the ΔTm is 12.1 °C.

The term Kd denotes a measure of binding affinity in units of concentration. Lower therefore signals a tighter complex. By ΔTm is commonly meant the change in melting temperature against a reference sample.

The values are drawn from paper doi:10.1101/2023.12.15.570541.
